Measurements as given in publication PMC3470943, “Identification of BACE2 as an avid ß-amyloid-degrading protease” (Molecular Neurodegeneration, 2012).

Target: T1, BACE2 (Homo sapiens, UniProt Q9Y5Z0)
T1 construct: purchased R&D Systems
T1 sequence (Q9Y5Z0 63-518): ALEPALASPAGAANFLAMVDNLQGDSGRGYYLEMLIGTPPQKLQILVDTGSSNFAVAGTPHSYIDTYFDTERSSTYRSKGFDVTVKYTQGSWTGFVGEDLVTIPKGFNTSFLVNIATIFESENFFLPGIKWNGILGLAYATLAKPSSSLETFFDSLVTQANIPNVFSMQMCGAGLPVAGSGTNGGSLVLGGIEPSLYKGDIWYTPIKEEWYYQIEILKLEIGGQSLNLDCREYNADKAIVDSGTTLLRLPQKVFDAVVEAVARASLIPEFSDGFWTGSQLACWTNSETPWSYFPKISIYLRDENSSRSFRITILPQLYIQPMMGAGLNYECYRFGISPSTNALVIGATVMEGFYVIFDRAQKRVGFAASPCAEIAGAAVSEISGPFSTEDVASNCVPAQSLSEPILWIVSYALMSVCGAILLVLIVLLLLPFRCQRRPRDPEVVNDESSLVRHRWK
Experiment: Cleavage of biotinylated Aβ by BACE2, immunoprecipitation/mass spectrometry (IP/MS)
Type: biochemical
Conditions: peptide 300 nM, BACE2 5 nM, within 1 h; 25 mM acetate buffer pH 4.0, 0.1% BSA; product Aβ34; SELDI-TOF MS
Experimental: We next investigated which peptide bond(s) within Aβ are hydrolyzed by BACE2 and BACE1. To that end, we co-incubated N-terminally biotinylated Aβ40 or Aβ42 (300nM) with BACE2 (5 nM) and analyzed the products by immunoprecipitation/mass spectrometry (IP/MS) (see Methods). […] To test whether any additional cleavages can occur, we incubated N-terminally biotinylated Aβ40 (300 nM) with a larger amount of BACE2 (25 nM) for 1 and 24 h. At these higher concentrations and longer incubation times, Aβ19 and Aβ20 were the principal N-terminal fragments remaining at the end of the reaction (Figure 3E-F).
The cleavage sites within Aβ40 and Aβ42 hydrolyzed by BACE2 and BACE1 were determined essentially as described with minor modifications. Briefly, Aβ peptides or biotinylated Aβ peptides were incubated for various lengths of time with recombinant BACE2 enzyme in Assay Buffer (25 mM acetate buffer, pH 4.0, supplemented with 0.1% BSA). The reaction was stopped by addition of protease inhibitor cocktail and pH adjustment. Aβ fragments were immediately precipitated by magnetic beads coated with streptavidin (for biotinylated Aβ) or magnetic beads coated with Ab9 antibody (for unmodified Aβ). […] Digested products were spotted onto a gold chip, dried, and analyzed using a Ciphergen ProteinChip SELDI time-of-flight system (Bio-Rad). […]

Row | extent of hydrolysis by BACE2 | Substance
1 | almost completely hydrolyzed | N-terminally biotinylated Aβ40: Aβ40 biotinylated at the N-terminus, substrate for IP/MS
2 | almost completely hydrolyzed | N-terminally biotinylated Aβ42: Aβ42 biotinylated at the N-terminus, substrate for IP/MS
